{"source": "paper PMC3433420", "origin": "cited, not measured here", "conditions_in_all_cases": "cited from earlier work", "key": {"SLA (Homo sapiens)": {"molecular_target": "SLA (Homo sapiens) (UniProt Q13239)", "sequence (Q13239 79-180)": "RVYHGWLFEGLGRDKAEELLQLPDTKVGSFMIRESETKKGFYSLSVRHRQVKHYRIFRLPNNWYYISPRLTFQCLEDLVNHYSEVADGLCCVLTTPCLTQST"}, "RASA1-NC (Homo sapiens)": {"molecular_target": "RASA1-NC (Homo sapiens) (UniProt P20936)", "sequence (P20936 176-446)": "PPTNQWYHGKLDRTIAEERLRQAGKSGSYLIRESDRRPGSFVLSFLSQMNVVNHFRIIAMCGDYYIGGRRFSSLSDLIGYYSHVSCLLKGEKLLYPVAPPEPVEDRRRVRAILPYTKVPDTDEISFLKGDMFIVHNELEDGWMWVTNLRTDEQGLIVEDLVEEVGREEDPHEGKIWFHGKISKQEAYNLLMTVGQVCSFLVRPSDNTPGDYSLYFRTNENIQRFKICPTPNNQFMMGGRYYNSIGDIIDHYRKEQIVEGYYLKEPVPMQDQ"}, "PIK3R3-NC (Homo sapiens) [1]": {"molecular_target": "PIK3R3-NC (Homo sapiens) (UniProt Q92569)"}, "SOCS5 (Homo sapiens)": {"molecular_target": "SOCS5 (Homo sapiens) (UniProt O75159)", "sequence (O75159 376-481)": "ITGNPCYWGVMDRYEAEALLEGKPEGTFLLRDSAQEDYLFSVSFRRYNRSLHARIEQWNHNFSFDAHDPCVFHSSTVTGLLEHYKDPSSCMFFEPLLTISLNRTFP"}, "PLCG2-NC (Homo sapiens) [2]": {"molecular_target": "PLCG2-NC (Homo sapiens) (UniProt P16885)", "sequence (P16885 527-740)": "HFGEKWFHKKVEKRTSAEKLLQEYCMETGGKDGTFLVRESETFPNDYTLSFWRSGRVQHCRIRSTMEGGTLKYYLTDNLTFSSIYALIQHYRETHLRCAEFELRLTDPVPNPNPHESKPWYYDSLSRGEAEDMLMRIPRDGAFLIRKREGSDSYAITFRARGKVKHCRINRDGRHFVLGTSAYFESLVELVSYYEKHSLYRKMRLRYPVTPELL"}, "ABL2 (Homo sapiens) [3]": {"molecular_target": "ABL2 (Homo sapiens) (UniProt P42684)", "sequence (P42684 168-268)": "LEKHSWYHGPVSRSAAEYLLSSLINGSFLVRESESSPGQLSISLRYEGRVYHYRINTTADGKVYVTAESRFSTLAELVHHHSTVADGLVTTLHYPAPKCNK"}, "RASA1-N (Homo sapiens) [4]": {"molecular_target": "RASA1-N (Homo sapiens) (UniProt P20936)", "sequence (P20936 176-446)": "as the sequence (P20936 176-446) above"}, "GRB7 (Homo sapiens)": {"molecular_target": "GRB7 (Homo sapiens) (UniProt Q14451)", "sequence (Q14451 426-532)": "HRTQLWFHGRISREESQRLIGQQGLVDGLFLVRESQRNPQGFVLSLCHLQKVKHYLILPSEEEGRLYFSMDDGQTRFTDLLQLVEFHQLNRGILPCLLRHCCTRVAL"}, "PIK3R3-NC (Homo sapiens) [5]": {"molecular_target": "PIK3R3-NC (Homo sapiens) (UniProt Q92569)", "remark": "listed apart in the source"}, "PIK3R3-N (Homo sapiens) [6]": {"molecular_target": "PIK3R3-N (Homo sapiens) (UniProt Q92569)"}, "PIK3R2-N (Homo sapiens) [7]": {"molecular_target": "PIK3R2-N (Homo sapiens) (UniProt O00459)", "sequence (O00459 325-721)": "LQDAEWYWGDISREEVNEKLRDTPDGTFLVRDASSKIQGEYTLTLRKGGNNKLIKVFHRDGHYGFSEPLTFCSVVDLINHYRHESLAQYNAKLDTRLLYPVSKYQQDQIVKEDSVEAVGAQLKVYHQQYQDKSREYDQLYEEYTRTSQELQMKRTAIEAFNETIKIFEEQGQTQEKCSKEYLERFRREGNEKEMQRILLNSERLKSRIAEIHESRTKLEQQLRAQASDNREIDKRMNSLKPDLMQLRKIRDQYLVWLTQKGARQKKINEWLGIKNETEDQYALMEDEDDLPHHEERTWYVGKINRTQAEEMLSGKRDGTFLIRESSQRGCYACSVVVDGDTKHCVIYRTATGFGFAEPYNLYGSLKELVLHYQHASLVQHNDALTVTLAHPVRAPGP"}, "FGR (Homo sapiens) [8]": {"molecular_target": "FGR (Homo sapiens) (UniProt P09769)"}, "BLK (Homo sapiens) [9]": {"molecular_target": "BLK (Homo sapiens) (UniProt P51451)", "sequence (P51451 119-225)": "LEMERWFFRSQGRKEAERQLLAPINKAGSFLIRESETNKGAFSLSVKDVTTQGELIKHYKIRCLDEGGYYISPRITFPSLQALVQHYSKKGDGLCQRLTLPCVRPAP"}, "ABL2 (Homo sapiens) [10]": {"molecular_target": "ABL2 (Homo sapiens) (UniProt P42684)", "remark": "listed apart in the source"}, "ZAP70-NC (Homo sapiens)": {"molecular_target": "ZAP70-NC (Homo sapiens) (UniProt P43403)", "sequence (P43403 5-259)": "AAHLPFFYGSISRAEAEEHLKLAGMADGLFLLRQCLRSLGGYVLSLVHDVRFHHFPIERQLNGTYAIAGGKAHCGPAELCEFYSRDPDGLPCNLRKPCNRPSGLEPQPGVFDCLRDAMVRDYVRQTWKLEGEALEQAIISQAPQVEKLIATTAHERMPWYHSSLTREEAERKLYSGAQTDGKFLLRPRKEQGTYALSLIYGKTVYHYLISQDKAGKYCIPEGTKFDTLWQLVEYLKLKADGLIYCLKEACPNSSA"}, "RASA1-N (Homo sapiens) [11]": {"molecular_target": "RASA1-N (Homo sapiens) (UniProt P20936)", "remark": "listed apart in the source"}, "YES1 (Homo sapiens) [12]": {"molecular_target": "YES1 (Homo sapiens) (UniProt P07947)", "sequence (P07947 153-260)": "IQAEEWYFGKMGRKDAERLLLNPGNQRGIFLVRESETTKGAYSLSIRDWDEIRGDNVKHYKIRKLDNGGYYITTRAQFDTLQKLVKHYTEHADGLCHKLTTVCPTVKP"}, "PIK3R1-NC (Homo sapiens) [13]": {"molecular_target": "PIK3R1-NC (Homo sapiens) (UniProt P27986)", "sequence (P27986 328-723)": "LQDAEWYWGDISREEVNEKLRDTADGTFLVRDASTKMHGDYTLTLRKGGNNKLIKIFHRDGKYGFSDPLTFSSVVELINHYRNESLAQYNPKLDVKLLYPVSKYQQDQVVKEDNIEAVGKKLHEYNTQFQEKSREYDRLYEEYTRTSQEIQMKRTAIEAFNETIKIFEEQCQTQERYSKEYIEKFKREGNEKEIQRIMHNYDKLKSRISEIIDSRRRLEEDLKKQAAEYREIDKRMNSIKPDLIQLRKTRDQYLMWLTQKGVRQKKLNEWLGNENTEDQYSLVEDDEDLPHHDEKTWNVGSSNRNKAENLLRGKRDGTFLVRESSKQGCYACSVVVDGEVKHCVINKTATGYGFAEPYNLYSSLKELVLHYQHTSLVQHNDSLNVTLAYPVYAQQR"}, "RASA1-N (Homo sapiens) [14]": {"molecular_target": "RASA1-N (Homo sapiens) (UniProt P20936)", "remark": "listed apart in the source"}, "ABL2 (Homo sapiens) [15]": {"molecular_target": "ABL2 (Homo sapiens) (UniProt P42684)", "remark": "listed apart in the source"}, "SYK-NC (Homo sapiens) [16]": {"molecular_target": "SYK-NC (Homo sapiens) (UniProt P43405)"}, "BLK (Homo sapiens) [17]": {"molecular_target": "BLK (Homo sapiens) (UniProt P51451)", "remark": "listed apart in the source"}, "RASA1-N (Homo sapiens) [18]": {"molecular_target": "RASA1-N (Homo sapiens) (UniProt P20936)", "remark": "listed apart in the source"}, "YES1 (Homo sapiens) [19]": {"molecular_target": "YES1 (Homo sapiens) (UniProt P07947)", "remark": "listed apart in the source"}, "SHB (Homo sapiens)": {"molecular_target": "SHB (Homo sapiens) (UniProt Q15464)", "sequence (Q15464 405-509)": "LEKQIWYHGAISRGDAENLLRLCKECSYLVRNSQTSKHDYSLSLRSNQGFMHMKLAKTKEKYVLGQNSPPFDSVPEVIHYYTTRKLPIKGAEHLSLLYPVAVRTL"}, "ABL2 (Homo sapiens) [20]": {"molecular_target": "ABL2 (Homo sapiens) (UniProt P42684)", "remark": "listed apart in the source"}, "ITK (Homo sapiens)": {"molecular_target": "ITK (Homo sapiens) (UniProt Q08881)", "sequence (Q08881 234-343)": "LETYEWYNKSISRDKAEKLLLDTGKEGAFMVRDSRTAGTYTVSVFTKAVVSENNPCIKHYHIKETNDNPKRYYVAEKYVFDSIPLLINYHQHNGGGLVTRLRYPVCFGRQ"}, "SHC1-PTB (Homo sapiens) [21]": {"molecular_target": "SHC1-PTB (Homo sapiens) (UniProt P29353)", "sequence (P29353 483-583)": "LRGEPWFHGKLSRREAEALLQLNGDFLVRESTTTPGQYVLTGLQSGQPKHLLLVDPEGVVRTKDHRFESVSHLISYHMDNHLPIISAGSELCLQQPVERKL"}, "PIK3R3-NC (Homo sapiens) [22]": {"molecular_target": "PIK3R3-NC (Homo sapiens) (UniProt Q92569)", "remark": "listed apart in the source"}, "SHC1-PTB (Homo sapiens) [23]": {"molecular_target": "SHC1-PTB (Homo sapiens) (UniProt P29353)", "remark": "listed apart in the source"}, "VAV2 (Homo sapiens) [24]": {"molecular_target": "VAV2 (Homo sapiens) (UniProt P52735)", "sequence (P52735 668-772)": "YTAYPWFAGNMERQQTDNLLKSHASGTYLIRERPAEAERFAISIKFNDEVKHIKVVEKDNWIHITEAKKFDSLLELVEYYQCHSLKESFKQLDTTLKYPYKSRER"}, "PLCG2-NC (Homo sapiens) [25]": {"molecular_target": "PLCG2-NC (Homo sapiens) (UniProt P16885)", "remark": "listed apart in the source"}, "SYK-NC (Homo sapiens) [26]": {"molecular_target": "SYK-NC (Homo sapiens) (UniProt P43405)", "remark": "listed apart in the source"}, "VAV3 (Homo sapiens)": {"molecular_target": "VAV3 (Homo sapiens) (UniProt Q9UKW4)", "sequence (Q9UKW4 667-771)": "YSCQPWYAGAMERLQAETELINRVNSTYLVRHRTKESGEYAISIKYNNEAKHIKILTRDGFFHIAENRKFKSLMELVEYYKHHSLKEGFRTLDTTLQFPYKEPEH"}, "FGR (Homo sapiens) [27]": {"molecular_target": "FGR (Homo sapiens) (UniProt P09769)", "remark": "listed apart in the source"}, "RASA1-N (Homo sapiens) [28]": {"molecular_target": "RASA1-N (Homo sapiens) (UniProt P20936)", "remark": "listed apart in the source"}, "ABL2 (Homo sapiens) [29]": {"molecular_target": "ABL2 (Homo sapiens) (UniProt P42684)", "remark": "listed apart in the source"}, "RASA1-N (Homo sapiens) [30]": {"molecular_target": "RASA1-N (Homo sapiens) (UniProt P20936)", "remark": "listed apart in the source"}, "PIK3R1-NC (Homo sapiens) [31]": {"molecular_target": "PIK3R1-NC (Homo sapiens) (UniProt P27986)", "remark": "listed apart in the source"}, "VAV2 (Homo sapiens) [32]": {"molecular_target": "VAV2 (Homo sapiens) (UniProt P52735)", "remark": "listed apart in the source"}, "PIK3R3-NC (Homo sapiens) [33]": {"molecular_target": "PIK3R3-NC (Homo sapiens) (UniProt Q92569)", "remark": "listed apart in the source"}, "VAV1 (Homo sapiens)": {"molecular_target": "VAV1 (Homo sapiens) (UniProt P15498)", "sequence (P15498 666-770)": "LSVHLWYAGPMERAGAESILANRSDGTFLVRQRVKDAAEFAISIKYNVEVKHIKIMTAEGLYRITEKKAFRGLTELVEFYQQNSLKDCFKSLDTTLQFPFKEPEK"}, "ABL2 (Homo sapiens) [34]": {"molecular_target": "ABL2 (Homo sapiens) (UniProt P42684)", "remark": "listed apart in the source"}, "NCK2 (Homo sapiens) [35]": {"molecular_target": "NCK2 (Homo sapiens) (UniProt O43639)", "sequence (O43639 280-380)": "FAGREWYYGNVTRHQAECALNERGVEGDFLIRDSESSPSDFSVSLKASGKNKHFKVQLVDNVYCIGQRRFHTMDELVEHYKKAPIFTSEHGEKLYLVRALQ"}, "NCK2 (Homo sapiens) [36]": {"molecular_target": "NCK2 (Homo sapiens) (UniProt O43639)", "remark": "listed apart in the source"}, "SYK-C (Homo sapiens)": {"molecular_target": "SYK-C (Homo sapiens) (UniProt P43405)"}, "CRKL (Homo sapiens)": {"molecular_target": "CRKL (Homo sapiens) (UniProt P46109)", "sequence (P46109 9-107)": "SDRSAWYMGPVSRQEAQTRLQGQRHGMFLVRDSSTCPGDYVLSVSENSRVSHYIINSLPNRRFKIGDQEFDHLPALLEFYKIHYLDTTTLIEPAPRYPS"}, "SYK-NC (Homo sapiens) [37]": {"molecular_target": "SYK-NC (Homo sapiens) (UniProt P43405)", "remark": "listed apart in the source"}, "GRB2 (Homo sapiens)": {"molecular_target": "GRB2 (Homo sapiens) (UniProt P62993)", "sequence (P62993 55-157)": "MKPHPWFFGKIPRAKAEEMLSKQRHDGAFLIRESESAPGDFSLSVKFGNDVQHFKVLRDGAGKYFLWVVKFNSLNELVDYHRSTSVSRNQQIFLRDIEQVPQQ"}, "PIK3R2-N (Homo sapiens) [38]": {"molecular_target": "PIK3R2-N (Homo sapiens) (UniProt O00459)", "remark": "listed apart in the source"}, "PIK3R3-N (Homo sapiens) [39]": {"molecular_target": "PIK3R3-N (Homo sapiens) (UniProt Q92569)", "remark": "listed apart in the source"}, "YES1 (Homo sapiens) [40]": {"molecular_target": "YES1 (Homo sapiens) (UniProt P07947)", "remark": "listed apart in the source"}}, "note": "Like-named read-outs stand apart in the source and are kept apart here.", "data": [{"substance": "…pYMNRQRDG", "values": [{"measurement": "apparent Kd (screen)", "setting": "SLA (Homo sapiens)", "result": 2000, "unit": "nM"}, {"measurement": "apparent Kd (screen)", "setting": "RASA1-NC (Homo sapiens)", "result": 2000, "unit": "nM"}, {"measurement": "apparent Kd (screen)", "setting": "PIK3R3-NC (Homo sapiens) [1]", "result": 2000, "unit": "nM"}, {"measurement": "apparent Kd (screen)", "setting": "SOCS5 (Homo sapiens)", "result": 2000, "unit": "nM"}, {"measurement": "apparent Kd (screen)", "setting": "PLCG2-NC (Homo sapiens) [2]", "result": 2000, "unit": "nM"}, {"measurement": "apparent Kd (screen)", "setting": "ABL2 (Homo sapiens) [3]", "result": 1960, "unit": "nM"}, {"measurement": "apparent Kd (screen)", "setting": "RASA1-N (Homo sapiens) [4]", "result": 1210, "unit": "nM"}, {"measurement": "apparent Kd (screen)", "setting": "GRB7 (Homo sapiens)", "result": 2000, "unit": "nM"}]}, {"substance": "…pYMNRRRRH", "values": [{"measurement": "apparent Kd (screen)", "setting": "PIK3R3-NC (Homo sapiens) [5]", "result": 1460, "unit": "nM"}, {"measurement": "apparent Kd (screen)", "setting": "PIK3R3-N (Homo sapiens) [6]", "result": 1380, "unit": "nM"}, {"measurement": "apparent Kd (screen)", "setting": "PIK3R2-N (Homo sapiens) [7]", "result": 1350, "unit": "nM"}, {"measurement": "apparent Kd (screen)", "setting": "FGR (Homo sapiens) [8]", "result": 1130, "unit": "nM"}, {"measurement": "apparent Kd (screen)", "setting": "BLK (Homo sapiens) [9]", "result": 1810, "unit": "nM"}, {"measurement": "apparent Kd (screen)", "setting": "ABL2 (Homo sapiens) [10]", "result": 296, "unit": "nM"}, {"measurement": "apparent Kd (screen)", "setting": "ZAP70-NC (Homo sapiens)", "result": 1470, "unit": "nM"}, {"measurement": "apparent Kd (screen)", "setting": "RASA1-N (Homo sapiens) [11]", "result": 306, "unit": "nM"}, {"measurement": "apparent Kd (screen)", "setting": "YES1 (Homo sapiens) [12]", "result": 585, "unit": "nM"}, {"measurement": "apparent Kd (screen)", "setting": "PIK3R1-NC (Homo sapiens) [13]", "result": 1510, "unit": "nM"}]}, {"substance": "…pYDGIPASEd", "values": [{"measurement": "apparent Kd (screen)", "setting": "RASA1-N (Homo sapiens) [14]", "result": 1410, "unit": "nM"}, {"measurement": "apparent Kd (screen)", "setting": "ABL2 (Homo sapiens) [15]", "result": 177, "unit": "nM"}, {"measurement": "apparent Kd (screen)", "setting": "SYK-NC (Homo sapiens) [16]", "result": 1550, "unit": "nM"}, {"measurement": "apparent Kd (screen)", "setting": "BLK (Homo sapiens) [17]", "result": 1180, "unit": "nM"}, {"measurement": "apparent Kd (screen)", "setting": "RASA1-N (Homo sapiens) [18]", "result": 1470, "unit": "nM"}, {"measurement": "apparent Kd (screen)", "setting": "YES1 (Homo sapiens) [19]", "result": 328, "unit": "nM"}, {"measurement": "apparent Kd (screen)", "setting": "SHB (Homo sapiens)", "result": 1060, "unit": "nM"}, {"measurement": "apparent Kd (screen)", "setting": "ABL2 (Homo sapiens) [20]", "result": 137, "unit": "nM"}]}, {"substance": "…pYLTPQGGA", "values": [{"measurement": "apparent Kd (screen)", "setting": "ITK (Homo sapiens)", "result": 767, "unit": "nM"}, {"measurement": "apparent Kd (screen)", "setting": "SHC1-PTB (Homo sapiens) [21]", "result": 346, "unit": "nM"}, {"measurement": "apparent Kd (screen)", "setting": "PIK3R3-NC (Homo sapiens) [22]", "result": 950, "unit": "nM"}, {"measurement": "apparent Kd (screen)", "setting": "SHC1-PTB (Homo sapiens) [23]", "result": 153, "unit": "nM"}, {"measurement": "apparent Kd (screen)", "setting": "VAV2 (Homo sapiens) [24]", "result": 372, "unit": "nM"}, {"measurement": "apparent Kd (screen)", "setting": "PLCG2-NC (Homo sapiens) [25]", "result": 1350, "unit": "nM"}, {"measurement": "apparent Kd (screen)", "setting": "SYK-NC (Homo sapiens) [26]", "result": 1150, "unit": "nM"}, {"measurement": "apparent Kd (screen)", "setting": "VAV3 (Homo sapiens)", "result": 596, "unit": "nM"}, {"measurement": "apparent Kd (screen)", "setting": "FGR (Homo sapiens) [27]", "result": 1680, "unit": "nM"}, {"measurement": "apparent Kd (screen)", "setting": "RASA1-N (Homo sapiens) [28]", "result": 638, "unit": "nM"}, {"measurement": "apparent Kd (screen)", "setting": "ABL2 (Homo sapiens) [29]", "result": 368, "unit": "nM"}, {"measurement": "apparent Kd (screen)", "setting": "RASA1-N (Homo sapiens) [30]", "result": 671, "unit": "nM"}, {"measurement": "apparent Kd (screen)", "setting": "PIK3R1-NC (Homo sapiens) [31]", "result": 226, "unit": "nM"}, {"measurement": "apparent Kd (screen)", "setting": "VAV2 (Homo sapiens) [32]", "result": 226, "unit": "nM"}, {"measurement": "apparent Kd (screen)", "setting": "PIK3R3-NC (Homo sapiens) [33]", "result": 1340, "unit": "nM"}, {"measurement": "apparent Kd (screen)", "setting": "VAV1 (Homo sapiens)", "result": 1240, "unit": "nM"}, {"measurement": "apparent Kd (screen)", "setting": "ABL2 (Homo sapiens) [34]", "result": 476, "unit": "nM"}, {"measurement": "apparent Kd (screen)", "setting": "NCK2 (Homo sapiens) [35]", "result": 759, "unit": "nM"}, {"measurement": "apparent Kd (screen)", "setting": "NCK2 (Homo sapiens) [36]", "result": 1100, "unit": "nM"}, {"measurement": "apparent Kd (screen)", "setting": "SYK-C (Homo sapiens)", "result": 1240, "unit": "nM"}, {"measurement": "apparent Kd (screen)", "setting": "CRKL (Homo sapiens)", "result": 1440, "unit": "nM"}, {"measurement": "apparent Kd (screen)", "setting": "SYK-NC (Homo sapiens) [37]", "result": 1330, "unit": "nM"}, {"measurement": "apparent Kd (screen)", "setting": "GRB2 (Homo sapiens)", "result": 1330, "unit": "nM"}, {"measurement": "apparent Kd (screen)", "setting": "PIK3R2-N (Homo sapiens) [38]", "result": 1280, "unit": "nM"}, {"measurement": "apparent Kd (screen)", "setting": "PIK3R3-N (Homo sapiens) [39]", "result": 1380, "unit": "nM"}, {"measurement": "apparent Kd (screen)", "setting": "YES1 (Homo sapiens) [40]", "result": 1190, "unit": "nM"}]}]}
